Three molecules from CN106366186A (ATTOGEN BIOMEDICAL (SUZHOU) INC, dated 2017) can be followed below.

The target in assay [1] is His-HPV16 E7重组蛋白 (HPV16) (UniProt P03129). Kind of assay: ELISA, scFv 5μg/ml on 0.1μg/ml coated antigen, anti-Flag-HRP; selection threshold. For orientation: ELISA stands for enzyme-linked immunosorbent assay.
In assay [2] the target is T1, His-Vac (HPV16).
T1 peptide: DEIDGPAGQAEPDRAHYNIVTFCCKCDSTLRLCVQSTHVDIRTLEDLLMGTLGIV
The experiment in a line: indirect ELISA on peptides.

In assay [3] the target is His-HPV16 E7重组蛋白 (HPV16) (UniProt P03129). Kind of assay: indirect ELISA, antibody 0.1μg/ml on 0.1μg/ml coat; threshold for a positive clone.
The target of assay [4] is T2, His-HPV18 E7重组蛋白 (HPV18, UniProt P06788 1-105).
T2 construct: also called His-HPV18 E7融合蛋白; not shown: His tag
T2 chain: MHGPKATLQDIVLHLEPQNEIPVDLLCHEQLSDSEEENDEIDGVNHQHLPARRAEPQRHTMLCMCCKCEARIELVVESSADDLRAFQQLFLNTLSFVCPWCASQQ
Kind of assay: indirect ELISA, 0.5μg/ml coat, antibody 1μg/ml.

Assay [5] deals with T3, 细胞内源的HPV16 E7蛋白 (CaSki, Siha cells, HPV16-positive cervical cells) (HPV16, UniProt P03129 1-98).
T3 construct: whole, on cells; Intracellular protein detected by immunocytochemistry in fixed, permeabilised cells; also called HPV16 E7内源蛋白
T3 sequence: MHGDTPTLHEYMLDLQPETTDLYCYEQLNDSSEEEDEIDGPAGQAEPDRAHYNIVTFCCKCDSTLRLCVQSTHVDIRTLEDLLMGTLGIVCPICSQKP
The experiment in a line: immunocytochemistry, CaSki cells.

Assay [6] concerns the target T4, 细胞内源的HPV18 E7蛋白 (HeLa, Siha cells) (HPV18, UniProt P06788 1-105).
T4 construct: whole, on cells; Intracellular protein detected by immunocytochemistry in fixed, permeabilised cells
T4 sequence: T2 chain with E73K
Kind of assay: immunocytochemistry, HeLa and Siha cells.

Changes are numbered by the printed parent chain.

B1: HPV16 E7单链抗体scFv001 (scFv, V domains shown)
VH: QSLEESGGRLVTPGTPLTLTCTASGSDISSYAISWVRQAPGKGLEWIGSISNSGNTYYASWAKGRFTIAKTSTTVTLKMTSLTTADTATYFCTRGAISGTPIWGPGTLVTVSS
VL: DPMLTQTASSVSAAVGGTVTISCQSSQSVYDNNWLGWYQQKPGQPPKLLIYSVSTLASGVPSRFKGSGSGTQFTLTISDLECDDAATYYCAGGFSGNIYTFGGGTNVEIK
In assay [1], B1 yielded an OD值 greater than 2 OD.

B2: HPV16 E7兔单克隆抗体RAB-001 (antibody, V domains shown)
VH: B1 VH
VL: B1 VL
notes: also called RAB-01; anti-HPV16 E7单抗RAB-001
As for B2, the binding result in assay [2] is listed as “no binding (tested: antibody 1μg/ml, peptide coat 2μg/ml)”; in assay [4] it was “binds”; in assay [5], “binds”; in assay [6], “binds”. In assay [3], this molecule gave an OD值 greater than 1 OD.

B3: HPV16 E7兔单克隆抗体RAB-034 (antibody, from another filing, V domains shown)
VH: QSLEESGGRLVTPGTPLTLTCTVSGIDLSSYAMGWVRQAPGEGLDWIGSIGSSGRTYYANWAKGRFTISKTSSTTVDLKMTSLTTEDTATYFCARGVVNRSDIWGPGTLVTVSS
VL: DPMLTQTASSVSAAVGGTVTISCQSSQSVYDNNWLGWYQQKPGQPPKLLIYGASNLESGVPSRFKGSGSGTQFTLTISDVQCDDAATYYCAGGYSGNRYVFGGGTEVVVK
Take B3: in assay [3], the OD值 is greater than 1 OD.
